Entries after “also recorded” stand apart in the source; their conditions may differ. Like-named read-outs stand apart in the source and are kept apart here.
Key:
[1] = system: hCCR5_1–31; assay: Epitope mapping with truncated peptides by competitive ELISA; format: binding, human
Excerpt: (§1) The peptide encoding the N-terminal extracellular domain of human CCR5 ([…]-biotin, hCCR5_1–31) was synthesised by the Peptide Synthesis Laboratory, Cancer ResearchUK. The same peptide without the C-terminal cysteine biotin was synthesised by PeptideSynthetics (Fareham PO15 6DP). An analogue of the peptide with sulphated tyrosines at position 10 and 14 was synthesised as described previously and given as a gift by Prof. Fred Naider (City University of New York). The panel of truncated peptides used for epitope mapping (See Results, Subsection “Defining a linear epitope in the N-terminal domain of CCR5”) was synthesised by Sigma (Pepscreen). The chimeric peptide used for immunisation ([…]) was synthesised by the peptide synthesis facility at the University of Ghent. All peptides were >80% pure by HPLC and mass spectroscopy.
The pepscreen panel of CCR5 truncated peptides was screened by competitive ELISA. Antibody supernatant (typically diluted 1 in 1000 or 1 in 4000) was added to N-terminal domain peptide coated ELISA plates in the presence or absence of 1 μg/well of one of the competing peptides. The antibody peptide mixture was incubated overnight, washed and then bound antibody measured as described above.

[2] = system: monocytes; assay: Transwell migration assay, monocytes; format: cell-based, human; conditions: for migration of monocytes to macrophage conditioned medium: 3 h at 37°C, conditioned medium from resting and activated (LPS) macrophages
Procedure: Peripheral blood mononuclear cells and monocyte derived macrophages were prepared from peripheral blood as previously described. The study was approved by the joint University College London / University College London Hospitals NHS Trust Human Research Ethics Committee and written informed consent was obtained from all participants. […] Conditioned media from these cultures were then centrifuged at 10,000g for 5 minutes and stored at -80°C. Polycarbonate transwell inserts (Corning No. 3421, with […] and 6.5 mm diameter) were placed over 500 μL conditioned media or control media or media containing purified chemokines in 24-well plates. […] of freshly isolated PBMC (5x10^6 cells /mL) were loaded into the upper chamber of the transwell, and incubated for 3 hours at 37°C. Transwells were then lifted out of the lower chamber and the contents of the upper chamber were carefully aspirated. Each transwell filter was subsequently tilted to rinse the under surface twice with 200 μL 0.25% Trypsin-EDTA (Gibco) that was allowed to drain into the well (lower chamber). […] The lower chamber cell suspension was collected and fixed with 1% paraformaldehyde in phosphate buffered saline (PBS). […] A FACScalibur flow cytometer (Becton Dickinson) was used with FlowJo (version 9.4.3) analysis software. 10 000 beads were counted to standardised cell count quantitation in each sample and transmigration of cells in the lower chamber was expressed as the proportion of the input.

[3] = system: HIV; conditions: cited from earlier work
[4] = system: untransfected controls (CHO cells); assay: Flow cytometry binding of antibodies to untransfected controls; parameters: species or system Chinese hamster; conditions: normalized to % maximum binding for each antibody
Excerpt: (§2) Chinese hamster ovary cells were transfected by electroporation with vectors expressing human or mouse CCR5 in an expression vector containing a neomycin resistance gene (Genecopoeia, #EX-Z0659-M02 and #EX-Mm01826-M02 respectively). G418 resistant cells were cloned by limit dilution and receptor expressing cells were identified by flow cytometry using RoAb13 anti-CCR5 and Rabbit anti-mouse FITC for human CCR5, and PE anti-Mouse CD195 (CCR5) (clone HM-CCR5, Insight Biotechnology) for mouse CCR5.
(§3) CHO cell transfectants (5 × 10^4) were incubated in 10% goat serum (Sigma) and 0.1% sodium azide for 30 min at 4°C. Purified antibodies or mouse sera at various dilutions were added, and incubated for 2–3 h at 4°C. Cells were washed and bound antibody detected using […] FITC or APC conjugates (R&D Systems). The number of bound antibody molecules was quantified in some experiments using Quikfit calibration beads containing known numbers of bound mouse IgG molecules as per manufacturers instructions (DAKO, #K0078).

[5] = system: CHO-CCR5 transfected cells; conditions: ref [19]; cited from earlier work
Excerpt: The clear cut inhibitory effects of the antibody even ...

[6] = system: hCCR5_1–31 N-terminal domain peptide; assay: Affinity of RoAb13 for hCCR5_1–31 peptide by competitive (two-stage) ELISA; format: binding, human; conditions: abstract value
Excerpt: as §1
(§4) 96 well ELISA plates (Nunc) were coated with peptide conjugates (10 μg/ml unless otherwise stated) in coating buffer (0.1 M sodium bicarbonate, pH 8.5), overnight at 4°C. All wells were washed (washing buffer PBS 0.1% Tween-20) and blocked by addition of 2% low fat milk (Tesco) in PBS for at least 1 h at room temperature. […] Unconjugated avidin was used as control coating. […] Bound antibody was detected using alkaline phosphatase coupled rabbit anti-mouse IgG or IgGFab (Sigma) antibody (1:2000 dilution) and substrate (PNPP FAST, Sigma). […]

[7] = system: human CCR5 (CHO cell transfectants); assay: Flow cytometry binding of antibodies to CCR5-transfected CHO cells; conditions: indirect immunofluorescence
Excerpt: as §2, §3

[8] = system: hCCR5_1–31 analogue with sulphated tyrosines at position 10 and 14; assay: ELISA binding of RoAb13 to sulphated N-terminal CCR5 peptide; parameters: species or system human
Excerpt: as §1, §4

[9] = system: CCR5 on human peripheral blood subpopulations; assay: Expression of CCR5 on human peripheral blood subsets as detected by RoAb13; format: binding; conditions: S2 Fig
Excerpt: Peripheral blood subpopulations were stained using purified RoAb13 Fab fragment directly conjugated with […] as per manufacturer’s instructions.

[10] = system: human peripheral blood leukocytes; assay: Transwell migration assay, peripheral blood leukocytes; format: cell-based; conditions: responses to individual chemokines or inflammatory macrophage conditioned media
Procedure: (§5) Peripheral blood mononuclear cells and monocyte derived macrophages were prepared from peripheral blood as previously described. The study was approved by the joint University College London / University College London Hospitals NHS Trust Human Research Ethics Committee and written informed consent was obtained from all participants. […] Conditioned media from these cultures were then centrifuged at 10,000g for 5 minutes and stored at -80°C. Polycarbonate transwell inserts (Corning No. 3421, with […] and 6.5 mm diameter) were placed over 500 μL conditioned media or control media or media containing purified chemokines in 24-well plates. […] of freshly isolated PBMC (5x10^6 cells /mL) were loaded into the upper chamber of the transwell, and incubated for 3 hours at 37°C. Transwells were then lifted out of the lower chamber and the contents of the upper chamber were carefully aspirated. Each transwell filter was subsequently tilted to rinse the under surface twice with 200 μL 0.25% Trypsin-EDTA (Gibco) that was allowed to drain into the well (lower chamber). […] The lower chamber cell suspension was collected and fixed with 1% paraformaldehyde in phosphate buffered saline (PBS). […] 10 000 beads were counted to standardised cell count quantitation in each sample and transmigration of cells in the lower chamber was expressed as the proportion of the input.

[11] = system: mouse CCR5; assay: Flow cytometry binding of antibodies to CHO cells transfected with mouse CCR5; conditions: normalized to % maximum binding for each antibody
Excerpt: as §2, §3

[12] = system: hCCR5_1–31; assay: ELISA binding of antibodies to the N-terminal CCR5 peptide; parameters: species or system human; conditions: peptide coupled to avidin, OD 405 nm
Excerpt: as §1, §4

[13] = system: cell surface CCR5 (expressed on CCR5 transfectants); assay: Affinity of RoAb13 for cell surface CCR5 by flow cytometry (Scatchard plot); format: binding, human; conditions: abstract value, CCR5-transfected cells
Excerpt: as §2, §3

[14] = system: lymphocytes; assay: Transwell migration assay, lymphocytes; format: cell-based, human; conditions: 3 h, conditioned medium from resting and activated macrophages
Procedure: as §5

## peptide spanning the whole of 5–25: peptide of the pepscreen panel spanning CCR5 residues 5–25 (VSSPIYDINYYTSEPCQKINV; UniProt P51681 5-25, looked up, fragment)
[1]; competing peptide 1 μg/well, overnight, competitive ELISA
  inhibition of R&D1801 binding to hCCR5_1–31: completely blocked

B1: RoAb13: mouse monoclonal anti-CCR5 antibody from hybridoma line number PZ3733 (Roche Palo Alto); EMBL LN832627 and LN832628 (antibody, V domains shown)
VH: EVQLQESGGGLVKPGGSLKLSCAASGFTFSTYAMSWVRQTPEKRLEWVASISTGDNTYYTDSVRGRFTISRDNARNILYLQMSSLRSEDTAMYFCTRGRGDRGDLFGYWGQGTLVTVSS
VL: DIVMSQSPSSLAVSVGEKVTMSCKSSQSLLYRGNQMNYLAWYQQKPGQSPKLLIYWASTRESGVPDRFTGSGSGTEFTLTISSVKAEDLTVYYCQQYYTYPRTFGGGTKLEIK
[2]
  migration in response to CCR5 binding chemokines: blocks migration of monocytes in response to CCR5 binding chemokines; also recorded: ability to block chemokine induced monocyte migration; also recorded: inhibits migration induced by chemokines which bind CCR5
  migration of monocytes to macrophage conditioned medium: blocks migration of monocytes; also recorded: inhibits monocyte chemotaxis
[2]; CCL2, S3 Fig
  migration in response to CCL2: blocked migration
[2]; CCL3, S3 Fig
  migration in response to CCL3: blocked migration
[2]; CCL4, S3 Fig
  migration in response to CCL4: blocked migration
[2]; CXCL12 (acts via CXCR4), S3 Fig
  migration in response to CXCL12: failed to block migration
[3]; previously shown
  HIV blocking: block HIV infection; also recorded: potent HIV blocking activity
[3]; ref [19],[32]
  inhibition of HIV infection: potent inhibitor of HIV infection
[3]; single round and spreading infection assays, ref [19]
  inhibition of HIV infection: inhibit HIV infection, in both single round and spreading infection assays
[4]
  binding to untransfected controls: less than 5 % of maximum binding
[5]
  block of binding of CCL3, 4 and CCL5: only partial ability to block binding of CCL3, 4 and CCL5
  block of chemokine induced calcium flux: only partial ability
[6]
  affinity for peptide: 1.2e+07 M⁻¹
[7]
  binding to CCR5-expressing transfectants: bound strongly to CCR5-expressing transfectants; also recorded: quite heterogenous
[1]; competitive ELISA with truncated peptides, defined by inhibition of binding by more than 50%
  core epitope recognised: between aa8 (proline) and 13(asparagine)
[8]; peptide sulphated at tyrosines 10 and 14
  binding to sulphated vs non-sulphated peptide: bound more strongly (heteroclytic binding) to sulphated than non-sulphated forms of the peptide; also recorded: binding to peptide was significantly enhanced by the sulphation of target tyrosines
[8]; peptide sulphated at tyrosines 10 and 14, listed as RoAb 13
  binding to sulphated vs non-sulphated peptide: binding to the peptide is enhanced by sulfation of tyrosines at positions 10 and 14
[9]
  detection of CCR5 on CD4, CD8 and NK cells: detected CCR5 on a subpopulation of human peripheral CD4, CD8 and NK cells
  detection of CCR5 on monocytes and B cells: low levels of CCR5 expression
[10]
  chemokine or conditioned media induced leukocyte migration: effectively blocked chemokine induced migration of human peripheral blood leukocytes
[11]
  binding to CHO cells transfected with mouse CCR5: less than 5 % of maximum binding
[12]
  recognition of the synthetic N-terminal peptide: recognised the synthetic peptide; also recorded: bound to both linear peptide and native forms of the epitope
[13]
  affinity for cells: 6e+08 M⁻¹

B2: RoAb13 Fab fragment: Fab fragment of RoAb13 produced by papain digestion; PDB 4S2S (antibody, V domains shown)
VH: B1 VH
VL: B1 VL
[2]
  migration of monocytes to macrophage conditioned medium: significant difference from control (T test, p<0.05)
[2]; listed as Fab fragment of RoAb13
  migration of monocytes to macrophage conditioned medium: significantly inhibited the migration of monocytes
[14]
  migration of lymphocytes to macrophage conditioned medium: not lymphocytes

Reference: article PMC4451072, “A Linear Epitope in the N-Terminal Domain of CCR5 and Its Interaction with Antibody” (PLoS ONE, 2015)
